The target of assay [1] is T1, tauΔ2-18 (UniProt P10636-8 1-441).
T1 construct: Deletion of residues 2-18; also called tau that lacks 2-18 domain; recombinant tauΔ2-18
Briefly: Western blot. In general terms: A western blot detects proteins with antibodies after separation by electrophoresis.

The target of assay [2] is T1, tauΔ2-18. Briefly: blot.

T1 sequence (P10636 other isoform, or with tags, fused parts or gaps mutant limits assumed): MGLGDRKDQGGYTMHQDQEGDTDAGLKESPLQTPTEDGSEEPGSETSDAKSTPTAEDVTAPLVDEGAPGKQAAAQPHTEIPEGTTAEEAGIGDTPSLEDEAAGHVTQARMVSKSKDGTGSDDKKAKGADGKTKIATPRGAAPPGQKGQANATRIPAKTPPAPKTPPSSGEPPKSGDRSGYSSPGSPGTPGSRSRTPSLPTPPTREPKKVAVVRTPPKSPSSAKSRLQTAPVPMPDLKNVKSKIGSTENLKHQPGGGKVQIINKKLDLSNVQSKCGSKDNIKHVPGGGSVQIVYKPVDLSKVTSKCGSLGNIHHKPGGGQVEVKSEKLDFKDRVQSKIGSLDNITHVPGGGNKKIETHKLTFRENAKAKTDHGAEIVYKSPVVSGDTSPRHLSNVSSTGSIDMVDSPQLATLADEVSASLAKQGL

B1: mouse monoclonal antibody 1C9 (antibody, V domains shown)
VH: EVQLQQSGTVLARPGASVKMSCKTSGYTFTNHWMHWVKQRPGQGLEWIGAIDPGNSDTSYNQKFKGQAKLTAVTSASTAFMELSSLTNEDSAVYYCTRRDFFGGEYAVDYWGQGTSVTVSS
VL: DVVMTQTPLSLPVSLGDQASISCRSSQSLVHSNGNTYLHWYLQKPGQSPKLLIYKVSNRFSGVPDRFSGSGSGTDFTLKISRVEAEDLGVYFCSQSTHVPWTFGGGTKLEIK
notes: also called 1C9 mAb; 1C9 moAb
As for B1, the binding result in the assay with tauΔ2-18 [1] is reported as “no binding”.

B2: Armanezumab (antibody, V domains shown)
VH: QVQLVQSGAEVKKPGASVKVSCKASGYTFTNHWMHWVRQAPGQGLEWMGAIDPGNSDTSYNQKFKGRVTMTRDTSTSTVYMELSSLRSEDTAVYYCARRDFFGGEYAVDYWGQGTLVTVSS
VL: DIVMTQSPLSLPVTPGEPASISCRSSQSLVHSNGNTYLHWYLQKPGQSPQLLIYKVSNRFSGVPDRFSGSGSGTDFTLKISRVEAEDVGVYYCSQSTHVPWTFGQGTKVEIKR
notes: Fully humanized IgG derived from 1C9; also called humanized 1C9
As for B2, the binding result with tauΔ2-18 [2] is “no binding”.
